No end group written: not given here.
Columns and labels:
[1] = biological target: T1, murine EphB4/murine ephrin-B2 (Mus musculus, UniProt P54761); assay: Inhibition of murine EphB4-AP binding to immobilized murine ephrin-B2-Fc (Table 4); settings: based on the estimated concentration of peptide-coupled PEG molecules, No PEG control not biotinylated
T1 sequence (P54761 16-539 limits assumed): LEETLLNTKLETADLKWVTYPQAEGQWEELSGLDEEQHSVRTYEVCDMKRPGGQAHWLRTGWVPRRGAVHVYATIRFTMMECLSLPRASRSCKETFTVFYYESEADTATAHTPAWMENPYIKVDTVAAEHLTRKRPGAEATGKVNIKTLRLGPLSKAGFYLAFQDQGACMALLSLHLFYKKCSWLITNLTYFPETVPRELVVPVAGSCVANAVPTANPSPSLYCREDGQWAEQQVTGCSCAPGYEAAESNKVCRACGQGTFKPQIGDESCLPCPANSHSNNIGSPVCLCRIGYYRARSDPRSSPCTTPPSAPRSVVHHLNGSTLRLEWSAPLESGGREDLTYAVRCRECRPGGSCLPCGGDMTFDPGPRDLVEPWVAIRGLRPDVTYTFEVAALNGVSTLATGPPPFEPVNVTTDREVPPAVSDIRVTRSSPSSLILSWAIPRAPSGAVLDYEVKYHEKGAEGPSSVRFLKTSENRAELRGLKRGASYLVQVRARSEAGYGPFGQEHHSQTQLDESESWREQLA
Procedure: The IC50 values in Table 4 were obtained from inhibition assays. […] Reati-bind Protein A coated strip plates were washed three times with wash buffer TBST/Ca. Plates were coated with murine ephrin-B2-Fc (reconstituted in PBS 200 μg/ml, diluted to 1 μg/ml with TBST/Ca) 100 μl/well for 1 h at ambient temperature. The control used was Human-Fc (1 μg/ml; 100 μl/well); Human-Fc is the control for ephrin-B2-Fc, which contains the extracellular domain of ephrin-B2 fused to the Fc portion of human IgG1. The plates were washed four times with TBST/Ca. For each well was added: PEG-TNYL-RAW-biotin, from PEGylation reaction in Example 2, supra, at different concentrations; 10 μl murine EphB4-Alkaline Phosphatase (EphB4-AP); and TBST/Ca to 50 μl. Plates were incubates for 3 hours at ambient temperature, then washed four times with TBST/Ca. Substrate, 1 mg/ml PNPP in SEAP buffer, was added in the amount of 100 μl/well. (2×SEAP buffer (pH=9.8) was prepared by: adding 2.1 ml diethanolamine and 10 μl 1M MgCl2 to 10 ml (total) water; adjusting pH to 9.8; wrapping in foil and storing at ambient temperature; and diluting with water to 1× on day of use). Optical density analysis (OD405) was performed using a plate reader to determine the extent to which PEG-TNYL-RAW-biotin inhibits the EphB4-ephrin-B2 interaction. […]

murine EphB4 [2] = biological target: T2, murine EphB4 (Mus musculus, UniProt P54761); assay: Binding ELISA on immobilized murine EphB4-Fc, streptavidin-HRP detection (Table 3); settings: binding to murine EphB4; based on the estimated concentration of peptide-coupled PEG molecules; read-out: KD ± SE
T2 construct: purchased R&D Systems 446-B4-200
T2 sequence (P54761 16-539 limits assumed): T1 sequence (P54761 16-539 limits assumed)
Procedure: The dissociation constants in Table 3 were measured in binding assays as described below. Reacti-bind Protein A coated strip plates were washed three times with the wash buffer TBST/Ca (TBS, 0.01% Tween, 1 mM CaCl2). Plates were coated with murine EphB4-Fc (reconstituted in PBS 200 μg/ml, diluted to 1 μg/ml in TBST/Ca) 100 μl/well for 1 hour at ambient temperature. The plates were washed four times with TBST/Ca. PEG-TNYL-RAW-biotin (made by The Burnham Institute, La Jolla, Calif.), obtained from the PEGylation reaction described in Example 2 supra, was added at different concentrations in TBST/Ca (100 μl/well) for 1 hour at ambient temperature. The plates were again washed four times with TBST/Ca. Streptavidin-HRP (1:2000) in 100 μl TBST/Ca was added for 1 hour at ambient temperature. The plates were again washed four times with TBST/Ca.

EphB2 = EphB2 (Homo sapiens, UniProt P29323); assay: EphB receptor specificity (% binding), Table 1; settings: binding to EphB2
EphB1 = assay: EphB receptor specificity (% binding), Table 1; settings: binding to EphB1
EphB4 [3] = biological target: T3, EphB4 (Mus musculus, UniProt P54761); assay: EphB receptor specificity (% binding), Table 1; settings: binding to EphB4
T3 sequence (P54761 16-987): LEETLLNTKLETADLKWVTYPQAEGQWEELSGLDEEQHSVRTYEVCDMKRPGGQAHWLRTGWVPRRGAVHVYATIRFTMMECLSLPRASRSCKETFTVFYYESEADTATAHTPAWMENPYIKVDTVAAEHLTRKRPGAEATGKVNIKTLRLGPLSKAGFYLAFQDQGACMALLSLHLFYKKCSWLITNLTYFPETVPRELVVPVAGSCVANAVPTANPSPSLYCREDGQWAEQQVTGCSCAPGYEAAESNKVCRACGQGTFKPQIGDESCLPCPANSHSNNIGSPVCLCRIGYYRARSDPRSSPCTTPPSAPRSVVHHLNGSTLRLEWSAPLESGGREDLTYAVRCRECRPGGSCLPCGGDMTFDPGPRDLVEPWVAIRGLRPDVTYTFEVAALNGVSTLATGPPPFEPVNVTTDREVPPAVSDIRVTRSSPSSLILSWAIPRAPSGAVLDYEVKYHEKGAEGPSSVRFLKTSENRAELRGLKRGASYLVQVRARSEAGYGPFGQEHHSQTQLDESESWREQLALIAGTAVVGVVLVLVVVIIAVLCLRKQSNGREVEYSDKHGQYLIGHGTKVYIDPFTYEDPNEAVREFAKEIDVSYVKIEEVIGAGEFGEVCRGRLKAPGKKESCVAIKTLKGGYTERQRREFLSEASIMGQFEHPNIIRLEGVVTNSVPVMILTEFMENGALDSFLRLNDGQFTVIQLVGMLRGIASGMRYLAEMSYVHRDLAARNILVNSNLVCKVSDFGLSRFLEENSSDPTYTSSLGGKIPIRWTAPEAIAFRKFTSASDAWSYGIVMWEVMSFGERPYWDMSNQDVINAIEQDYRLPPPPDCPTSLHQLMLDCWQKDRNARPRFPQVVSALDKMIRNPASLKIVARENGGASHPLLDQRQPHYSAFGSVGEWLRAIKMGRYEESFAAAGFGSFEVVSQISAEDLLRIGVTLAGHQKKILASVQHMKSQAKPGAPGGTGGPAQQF

EphB3 = EphB3 (Homo sapiens, UniProt P54753); assay: EphB receptor specificity (% binding), Table 1; settings: binding to EphB3
EphB6 = biological target: T4, EphB6 (Homo sapiens, UniProt O15197); assay: EphB receptor specificity (% binding), Table 1; settings: binding to EphB6
T4 sequence (O15197 32-1021): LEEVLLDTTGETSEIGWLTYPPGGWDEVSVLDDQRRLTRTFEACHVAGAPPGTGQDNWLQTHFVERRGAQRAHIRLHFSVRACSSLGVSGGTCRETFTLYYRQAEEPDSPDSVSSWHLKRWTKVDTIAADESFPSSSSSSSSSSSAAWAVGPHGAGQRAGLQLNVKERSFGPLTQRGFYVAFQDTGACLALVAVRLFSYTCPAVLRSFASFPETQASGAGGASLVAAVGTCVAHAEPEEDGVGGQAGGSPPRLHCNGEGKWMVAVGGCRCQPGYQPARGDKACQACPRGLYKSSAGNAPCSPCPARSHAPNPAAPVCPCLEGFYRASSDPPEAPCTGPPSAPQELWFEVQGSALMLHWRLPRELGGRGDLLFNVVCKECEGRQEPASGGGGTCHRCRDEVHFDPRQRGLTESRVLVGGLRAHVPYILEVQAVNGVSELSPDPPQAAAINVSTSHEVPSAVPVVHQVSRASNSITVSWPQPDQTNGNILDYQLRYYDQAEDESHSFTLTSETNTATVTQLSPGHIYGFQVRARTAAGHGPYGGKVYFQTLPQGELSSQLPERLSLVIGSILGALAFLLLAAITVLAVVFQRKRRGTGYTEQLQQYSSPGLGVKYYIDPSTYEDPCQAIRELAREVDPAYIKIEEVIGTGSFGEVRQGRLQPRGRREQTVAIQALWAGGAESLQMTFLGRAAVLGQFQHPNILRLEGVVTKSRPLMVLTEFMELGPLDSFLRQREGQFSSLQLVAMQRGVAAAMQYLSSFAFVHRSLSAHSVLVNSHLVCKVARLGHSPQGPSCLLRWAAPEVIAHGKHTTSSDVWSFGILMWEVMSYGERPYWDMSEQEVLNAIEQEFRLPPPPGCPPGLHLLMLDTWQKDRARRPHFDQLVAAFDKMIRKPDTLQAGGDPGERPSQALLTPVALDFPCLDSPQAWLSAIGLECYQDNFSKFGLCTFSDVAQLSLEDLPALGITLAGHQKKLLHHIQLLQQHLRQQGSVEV

murine EphB4 ectodomain = biological target: T5, murine EphB4 ectodomain (Mus musculus, UniProt P54761); assay: Inhibition of murine ephrin-B2 AP binding to immobilized murine EphB4 ectodomain (Example 4)
T5 construct: Wells coated with the murine EphB4 ectodomain
T5 sequence (P54761 16-539 limits assumed): T1 sequence (P54761 16-539 limits assumed)
Procedure: Wells coated with the murine EphB4 ectodomain were incubated with murine ephrin-B2 AP and different concentrations of the indicated peptides. Ephrin-B2 AP binding to the immobilized EphB4 receptor ectodomain was measured in the presence of various concentrations of the peptides and detected by measuring alkaline phosphatase activity. Ephrin-B2 AP binding in the presence of peptide was normalized to binding in the absence of peptide.

[4] = Half-life of TNYL-RAW Fc in HEK293 cell culture medium; format: in vitro ADME; settings: purified from medium in which HEK293 cells were grown for 4 days
murine EphB4 [5] = biological target: T2, murine EphB4; assay: TNYL-RAW Fc immobilized on protein A ELISA plates, binding of murine EphB4 AP; settings: purified from HEK293 cell culture supernatants (FIG. 5B)
EphB4 [6] = biological target: T6, EphB4 (Homo sapiens, UniProt P54760); assay: EphB4 tyrosine phosphorylation in MDA-MB-231 breast cancer cells (immunoprecipitation, PTyr immunoblot); format: cell-based; settings: 2 μg/ml, clustered with anti-Fc antibodies, 20 minutes, MDA-MB-231 cells (FIG. 5E)
T6 construct: endogenous in cells; host or cells: MDA-MB-231 breast cancer cells
T6 sequence (P54760 16-987): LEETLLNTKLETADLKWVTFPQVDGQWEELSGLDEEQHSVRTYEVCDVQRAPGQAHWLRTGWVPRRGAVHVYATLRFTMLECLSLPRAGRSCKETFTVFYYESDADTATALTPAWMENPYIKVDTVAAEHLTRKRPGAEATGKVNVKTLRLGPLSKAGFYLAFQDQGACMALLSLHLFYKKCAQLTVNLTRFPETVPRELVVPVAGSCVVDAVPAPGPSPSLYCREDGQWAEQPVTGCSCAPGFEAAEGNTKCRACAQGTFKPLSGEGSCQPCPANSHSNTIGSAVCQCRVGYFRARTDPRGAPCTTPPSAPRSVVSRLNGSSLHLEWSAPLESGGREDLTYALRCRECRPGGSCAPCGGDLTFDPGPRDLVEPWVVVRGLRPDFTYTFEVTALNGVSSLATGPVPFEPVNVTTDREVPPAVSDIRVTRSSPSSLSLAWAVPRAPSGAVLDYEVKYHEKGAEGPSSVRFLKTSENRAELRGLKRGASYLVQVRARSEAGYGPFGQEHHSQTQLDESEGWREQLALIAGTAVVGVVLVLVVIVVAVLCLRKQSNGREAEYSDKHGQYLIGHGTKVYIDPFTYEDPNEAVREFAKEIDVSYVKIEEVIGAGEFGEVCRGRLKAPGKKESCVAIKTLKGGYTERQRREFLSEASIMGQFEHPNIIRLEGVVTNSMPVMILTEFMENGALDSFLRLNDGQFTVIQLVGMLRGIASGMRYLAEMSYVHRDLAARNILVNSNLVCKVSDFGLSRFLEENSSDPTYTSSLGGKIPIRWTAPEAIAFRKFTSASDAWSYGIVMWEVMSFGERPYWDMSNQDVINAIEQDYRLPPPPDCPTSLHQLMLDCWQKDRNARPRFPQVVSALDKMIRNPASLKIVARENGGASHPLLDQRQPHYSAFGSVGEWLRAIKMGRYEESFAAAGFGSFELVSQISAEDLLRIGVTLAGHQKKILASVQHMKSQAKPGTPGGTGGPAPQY
Procedure: EphB4 tyrosine phosphorylation was detected in EphB4 immunoprecipitates by immunoblotting with anti-phosphotyrosine antibodies (PTyr). […] Cells were also stimulated with 1 μg/ml ephrin-B2 Fc or human Fc as positive and negative controls, respectively.

EphB2, sequence (P29323 19-1055): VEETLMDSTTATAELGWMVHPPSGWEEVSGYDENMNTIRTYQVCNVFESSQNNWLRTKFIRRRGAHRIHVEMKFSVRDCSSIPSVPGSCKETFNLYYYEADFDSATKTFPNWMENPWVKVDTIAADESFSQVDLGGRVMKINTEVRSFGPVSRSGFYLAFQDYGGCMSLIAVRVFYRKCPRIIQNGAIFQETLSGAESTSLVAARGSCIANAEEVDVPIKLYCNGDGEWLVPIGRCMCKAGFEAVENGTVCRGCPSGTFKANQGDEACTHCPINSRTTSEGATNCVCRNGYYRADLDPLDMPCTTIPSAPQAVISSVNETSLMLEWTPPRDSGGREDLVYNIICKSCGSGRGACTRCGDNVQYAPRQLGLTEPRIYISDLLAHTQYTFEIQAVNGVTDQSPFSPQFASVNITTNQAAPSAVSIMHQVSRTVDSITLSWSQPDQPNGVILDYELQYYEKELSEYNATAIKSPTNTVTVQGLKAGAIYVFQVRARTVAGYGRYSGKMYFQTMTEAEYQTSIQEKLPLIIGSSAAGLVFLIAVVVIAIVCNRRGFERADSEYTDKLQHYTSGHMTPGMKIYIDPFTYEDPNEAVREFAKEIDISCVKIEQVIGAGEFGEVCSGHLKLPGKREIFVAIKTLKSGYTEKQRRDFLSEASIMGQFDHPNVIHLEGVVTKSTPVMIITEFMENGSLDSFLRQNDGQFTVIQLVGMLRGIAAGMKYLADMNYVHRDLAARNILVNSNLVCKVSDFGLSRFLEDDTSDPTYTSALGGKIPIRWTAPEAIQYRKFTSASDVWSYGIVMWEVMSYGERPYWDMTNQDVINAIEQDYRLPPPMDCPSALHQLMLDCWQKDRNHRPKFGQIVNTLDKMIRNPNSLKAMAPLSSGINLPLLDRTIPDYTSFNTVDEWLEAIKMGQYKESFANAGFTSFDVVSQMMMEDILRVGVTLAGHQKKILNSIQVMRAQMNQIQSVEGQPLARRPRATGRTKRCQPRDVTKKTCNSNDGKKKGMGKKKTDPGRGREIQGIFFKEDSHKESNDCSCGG
EphB3, sequence (P54753 34-998): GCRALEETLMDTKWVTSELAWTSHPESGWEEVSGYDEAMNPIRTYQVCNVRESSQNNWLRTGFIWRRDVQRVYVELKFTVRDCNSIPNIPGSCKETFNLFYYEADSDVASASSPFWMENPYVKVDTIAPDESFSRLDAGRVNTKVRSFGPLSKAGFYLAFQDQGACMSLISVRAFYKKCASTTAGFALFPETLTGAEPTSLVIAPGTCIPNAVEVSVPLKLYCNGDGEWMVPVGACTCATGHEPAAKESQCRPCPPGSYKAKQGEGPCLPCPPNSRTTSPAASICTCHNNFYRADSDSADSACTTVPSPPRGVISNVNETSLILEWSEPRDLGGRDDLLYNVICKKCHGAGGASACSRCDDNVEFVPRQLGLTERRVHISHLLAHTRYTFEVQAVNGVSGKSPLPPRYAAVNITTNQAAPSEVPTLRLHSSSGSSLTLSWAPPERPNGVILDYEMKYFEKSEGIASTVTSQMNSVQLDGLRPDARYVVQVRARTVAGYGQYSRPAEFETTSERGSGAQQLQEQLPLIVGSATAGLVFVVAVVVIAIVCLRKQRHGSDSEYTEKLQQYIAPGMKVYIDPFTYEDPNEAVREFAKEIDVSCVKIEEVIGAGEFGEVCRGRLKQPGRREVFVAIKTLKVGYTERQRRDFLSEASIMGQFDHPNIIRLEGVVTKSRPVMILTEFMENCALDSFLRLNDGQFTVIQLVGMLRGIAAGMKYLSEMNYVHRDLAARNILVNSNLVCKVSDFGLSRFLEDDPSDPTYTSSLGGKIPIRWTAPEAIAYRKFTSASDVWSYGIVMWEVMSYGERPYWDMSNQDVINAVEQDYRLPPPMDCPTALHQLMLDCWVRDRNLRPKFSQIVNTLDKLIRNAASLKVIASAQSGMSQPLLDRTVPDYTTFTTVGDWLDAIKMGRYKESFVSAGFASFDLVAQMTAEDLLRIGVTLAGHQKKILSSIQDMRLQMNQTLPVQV

Substance: 10 Kd (monomer): one TNYL-RAW peptide (with biotin) conjugated to a 10 kDa PEG molecule (TNYLFSPNGPIARAW; also: conjugated to a 10 kDa PEG, site not given here, biotin, position not given here)
- IC50 [1]: 21 ± 5 nM
- Kd (murine EphB4 [2]): 1.4 ± 0.7 nM

Substance: 26 (LPHGPVAAWDA; EphB4-binding peptide) [compound 26]
- EphB Receptor Specificity (% Binding) B2 (EphB2): 15%
- EphB Receptor Specificity (% Binding) B1 (EphB1): 2%
- EphB Receptor Specificity (% Binding) B4 (EphB4 [3]): 100%
- EphB Receptor Specificity (% Binding) B3 (EphB3): 2%
- EphB Receptor Specificity (% Binding) B6 (EphB6): 4%

Substance: LFSPNGPIARAW [L-RAW]
- IC50 (murine EphB4 ectodomain): > 10 µM

Substance: TNYL-RAW Fc fusion protein: TNYL-RAW peptide, GSGSK linker and human Fc of IgG1; two fusion proteins dimerize via the Fc domain (TNYLFSPNGPIARAWGSGSK-{human IgG1 Fc}; also: dimerizes via the Fc domain)
- half-life [4]: appears to be longer than that of the synthetic peptide without Fc
- binding to EphB4 AP (murine EphB4 [5]): able to bind EphB4 AP with substantial affinity
- EphB4 tyrosine phosphorylation (EphB4 [6]): did not stimulate EphB4 tyrosine phosphorylation

Reference: patent publication US20100150834A1, “HIGH AFFINITY EPHB RECEPTOR BINDING COMPOUNDS AND METHODS OF USE THEREOF” (priority 2006, published 2010)
